The series deals with Phloem protein 2 (PP2), 26 kDa major variant (cucumber). Kind of series: northwestern. Particulars: Northwestern: 10 mM Tris-HCl pH 7.5, 1 mM EDTA, 100 mM NaCl, 0.02% Ficoll 400, 0.02% PVP-40, 1% BSA, 5 pmol probe, 50 ug/ml yeast tRNA, renaturation 25 C. ….

Take CY1 D-RNA: the binding signal (fold vs PEMV2) was 10.

As to CY1 full-length RNA, the binding signal (fold vs PEMV2) stood at 7.5.

PEMV2 RNA: the binding signal (reference for fold values) was 1.

Source of the values: publication PMC11081511.
